Reference: the supplement of paper PMC7877785
± gives the uncertainty stated by the source.

Assay: self-splicing fitness, log relative to wild type (ln ratio); higher = more splicing; Tetrahymena group I intron in knt gene, E. coli kanamycin selection, DiMSum; sequences stand for … in CUCUCU…GGAGGGAAAAGUUAUCAGGCAUGCACCUGGUAGCUAGUCUUUAAACCAAUAGAUUGCAUCGGUUUAAAAGGCAAGACCGUCAAAUUGCGGGAAAGGGGUCAACAGCCGUUCAGUACCAAGUCUCAGGGGAAACUUUGAGAUGGCCUUGCAAAGGGUAUGGUAAUAAGCUGACGGACAUGGUCCUAACCACGCAGCCAAGUCCUAAGUCAACAGAUCUUCUGUUGAUAUGGAUGCAGUUCACAGACUAAAUGUCGGUCGGGGAAGAUGUAUUCUUCUCAUAAGAUAUAGUCGGACCUCUCCUUAAUGGGAGCUAGCGGAUGAAGUGAUGCAACACUGGAGCCGCUGGGAACUAAUUUGUAUGCGAAAGUAUAUUGAUUAGUUUUGGAGUACUCGUGGUCG
Outline: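 Colonies from six replicate transformations of E. coli BL21(DE3) were pooled and amplicon-sequenced on an Illumina HiSeq 2500. The library placed an intron with all eight P1ex-region nucleotides randomised inside the knt kanamycin-resistance gene on pET-22b(+), and cells grew overnight at 37°C or 30°C on LB agar with or without 25 μg/mL kanamycin (plus 100 μg/mL carbenicillin, 50 μM IPTG, 0.2% rhamnose). Fitness is the DiMSum error-weighted combination of wild-type-normalised replicate fold changes, kanamycin versus none.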

| Sequence | self-splicing fitness (ln) (37 °C) | self-splicing fitness (ln) (30 °C) |
| --- | --- | --- |
| UCUGAGCAAUAUUACGUCAC | -2.32 ± 0.45 | – |
| UCUGAGCAAUAUUACGUCCU | – | -1.81 ± 0.39 |
| UCUGAGCAAUAUUACGUCGG | -0.184 ± 0.12 | -0.746 ± 0.093 |
| UCUGAGCAAUAUUACGUGAA | -1.9 ± 0.27 | -2.32 ± 0.17 |
| UCUGAGCAAUAUUACGUUUG | -1.81 ± 0.15 | -4.82 ± 0.29 |
| UCUUAGCAAUAUUACGACAG | -1.56 ± 0.22 | -2.9 ± 0.24 |
| UCUUAGCAAUAUUACGACGG | -0.0318 ± 0.2 | -0.955 ± 0.15 |
| UCUUAGCAAUAUUACGACGU | -0.505 ± 0.13 | -0.316 ± 0.1 |
| UCUUAGCAAUAUUACGAGGC | – | -3.01 ± 0.46 |
| UCUUAGCAAUAUUACGCAAG | -2.48 ± 0.28 | -1.34 ± 0.2 |
| UCUUAGCAAUAUUACGCGAA | -1.19 ± 0.3 | – |
| UCUUAGCAAUAUUACGCUAG | -2.47 ± 0.28 | -2.15 ± 0.19 |
| UCUUAGCAAUAUUACGGACC | -1.91 ± 0.28 | – |
| UCUUAGCAAUAUUACGGAGC | -0.68 ± 0.14 | -3.74 ± 0.4 |
| UCUUAGCAAUAUUACGGAUG | -1.76 ± 0.17 | -3.74 ± 0.28 |
| UCUUAGCAAUAUUACGGCGA | -0.295 ± 0.13 | -0.253 ± 0.15 |
| UCUUAGCAAUAUUACGGGAC | -1.8 ± 0.32 | -3.78 ± 0.24 |
| UCUUAGCAAUAUUACGGGCC | -1.41 ± 0.27 | -3.6 ± 0.32 |
| UCUUAGCAAUAUUACGGGGC | -3.03 ± 0.27 | -3.82 ± 0.3 |
| UCUUAGCAAUAUUACGUAAU | -2.58 ± 0.2 | -5 ± 0.45 |
| UCUUAGCAAUAUUACGUACG | -0.522 ± 0.088 | -1.58 ± 0.083 |
| UCUUAGCAAUAUUACGUCGU | -1.92 ± 0.12 | -2.2 ± 0.12 |
| UGAAAGCAAUAUUACGAACU | 0.612 ± 0.1 | -0.526 ± 0.088 |
| UGAAAGCAAUAUUACGAAGG | -1.48 ± 0.25 | -2.92 ± 0.21 |
| UGAAAGCAAUAUUACGAAUC | -2.53 ± 0.21 | -3.58 ± 0.21 |

| Sequence | self-splicing fitness (ln) (37 °C) | self-splicing fitness (ln) (30 °C) |
| --- | --- | --- |
| UGAAAGCAAUAUUACGAUAU | -1.21 ± 0.13 | -2.68 ± 0.18 |
| UGAAAGCAAUAUUACGAUUC | -2 ± 0.22 | -2.53 ± 0.18 |
| UGAAAGCAAUAUUACGCACU | 0.371 ± 0.11 | -0.504 ± 0.094 |
| UGAAAGCAAUAUUACGCCGA | -0.339 ± 0.14 | -1.61 ± 0.14 |
| UGAAAGCAAUAUUACGCCUA | 0.207 ± 0.098 | 0.122 ± 0.093 |
| UGAAAGCAAUAUUACGCGCG | -0.153 ± 0.1 | -0.237 ± 0.079 |
| UGAAAGCAAUAUUACGCGCU | 0.297 ± 0.14 | -0.84 ± 0.11 |
| UGAAAGCAAUAUUACGCGGA | -1.52 ± 0.13 | -1.66 ± 0.13 |
| UGAAAGCAAUAUUACGCGGG | -0.83 ± 0.11 | -2.8 ± 0.13 |
| UGAAAGCAAUAUUACGCGGU | -1.78 ± 0.36 | – |
| UGAAAGCAAUAUUACGCGUA | -0.174 ± 0.13 | -1.31 ± 0.12 |
| UGAAAGCAAUAUUACGGAAG | -1.15 ± 0.14 | -1.78 ± 0.11 |
| UGAAAGCAAUAUUACGGCAA | 0.497 ± 0.1 | -0.125 ± 0.078 |
| UGAAAGCAAUAUUACGGGCC | -1.32 ± 0.22 | -3.48 ± 0.23 |
| UGAAAGCAAUAUUACGGGCG | 0.348 ± 0.11 | -0.0565 ± 0.085 |
| UGAAAGCAAUAUUACGGUCG | 0.137 ± 0.067 | 0.0681 ± 0.051 |
| UGAAAGCAAUAUUACGUAUG | -1.21 ± 0.14 | -1.53 ± 0.098 |
| UGAAAGCAAUAUUACGUCUU | -0.659 ± 0.073 | -1.69 ± 0.074 |
| UGAAAGCAAUAUUACGUGCG | -0.395 ± 0.073 | -0.35 ± 0.065 |
| UGAAAGCAAUAUUACGUGUA | -1.08 ± 0.11 | -1.5 ± 0.091 |
| UGACAGCAAUAUUACGAAAU | -2.74 ± 0.24 | -3.12 ± 0.19 |
| UGACAGCAAUAUUACGAAGG | -1.36 ± 0.17 | -3.84 ± 0.23 |
| UGACAGCAAUAUUACGAGGA | -3.06 ± 0.22 | -2.51 ± 0.16 |
| UGACAGCAAUAUUACGAUCC | 0.083 ± 0.11 | -0.422 ± 0.09 |
